Laboratory results published in article doi:10.1101/2024.03.21.586141, “Delving into human α1,4-galactosyltransferase acceptor specificity: the role of enzyme dimerization” (bioRxiv, 2024).

T1: human β1,4-galactosyltransferase 1 (B4galt1) (human, UniProt P15291-2 1-385)
T1 construct: human β1,4-galactosyltransferase 1, ORF of GenBank NM_001378495.1 nucleotides 30-1187 (1158 nt: 385 codons and stop); Synthetic ORF (Thermo Fisher) recloned into pBiT1.1-N/C and pBiT2.1-N/C; also called N-Lg-B4galt1; C-Lg-B4galt1; source: HEK293T or CHO-Lec2 cells, transfected (PEI), in live cells; not shown: LgBiT or SmBiT (NanoLuc subunit), N-terminal or C-terminal, kept
T1 sequence (looked up): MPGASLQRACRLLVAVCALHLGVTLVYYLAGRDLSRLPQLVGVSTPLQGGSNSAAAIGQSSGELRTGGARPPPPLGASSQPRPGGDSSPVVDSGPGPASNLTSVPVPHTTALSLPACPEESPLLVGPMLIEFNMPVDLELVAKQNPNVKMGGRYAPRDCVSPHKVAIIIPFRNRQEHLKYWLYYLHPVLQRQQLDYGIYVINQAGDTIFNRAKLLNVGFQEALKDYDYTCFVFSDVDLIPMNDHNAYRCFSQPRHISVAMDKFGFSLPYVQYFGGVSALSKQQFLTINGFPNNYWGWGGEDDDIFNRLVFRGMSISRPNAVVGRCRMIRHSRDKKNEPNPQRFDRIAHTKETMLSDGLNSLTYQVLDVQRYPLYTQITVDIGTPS

T2: human β1,4-galactosyltransferase 5 isoenzyme (B4galt5) (human, UniProt O43286 1-388)
T2 construct: human β1,4-galactosyltransferase 5, ORF of GenBank NM_004776.4 nucleotides 189-1355 (388 codons and stop); Synthetic ORF (Thermo Fisher) recloned into pBiT1.1-N/C and pBiT2.1-N/C; also called N-Lg-B4galt5; C-Lg-B4galt5; source: HEK293T or CHO-Lec2 cells, transfected (PEI), in live cells; not shown: LgBiT or SmBiT (NanoLuc subunit), N-terminal or C-terminal, kept
T2 sequence (looked up): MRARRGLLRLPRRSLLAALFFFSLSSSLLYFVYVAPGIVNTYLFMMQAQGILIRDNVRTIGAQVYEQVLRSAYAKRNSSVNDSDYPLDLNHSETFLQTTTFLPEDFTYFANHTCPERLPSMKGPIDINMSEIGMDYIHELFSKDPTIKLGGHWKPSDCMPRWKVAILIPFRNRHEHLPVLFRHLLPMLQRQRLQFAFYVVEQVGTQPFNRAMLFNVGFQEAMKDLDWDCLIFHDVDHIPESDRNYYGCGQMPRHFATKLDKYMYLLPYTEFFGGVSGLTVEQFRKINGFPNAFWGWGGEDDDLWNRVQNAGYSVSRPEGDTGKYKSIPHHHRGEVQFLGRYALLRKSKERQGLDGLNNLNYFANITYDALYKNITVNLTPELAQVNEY


Columns and labels:
Conditions in all cases: partners not purified
[1] = molecular target: T1, human β1,4-galactosyltransferase 1 …; assay: split reporter (BiFC, NanoBiT); NanoBiT in live HEK293T cells, co-transfected with LgBiT and SmBiT fusions (N- or C-terminal, 25 ng of each plasmid a well), Nano-Glo Live Cell Substrate in Opti-MEM; fold of luminescence over LgBiT fusion with HaloTag-SmBiT, threshold 10-fold
[2] = molecular target: T1, human β1,4-galactosyltransferase 1 …; assay: split reporter (BiFC, NanoBiT); NanoBiT in live CHO-Lec2 cells, co-transfected with LgBiT and SmBiT fusions (N- or C-terminal, 25 ng of each plasmid a well), Nano-Glo Live Cell Substrate in Opti-MEM; fold of luminescence over LgBiT fusion with HaloTag-SmBiT, threshold 10-fold
[3] = molecular target: T2, human β1,4-galactosyltransferase 5 …; assay: as above

fold of luminescence over the negative control [1] [times] | fold of luminescence over the negative control [2] [times] | fold of luminescence over the negative control [3] [times] | Binder
~60 | 90 | 300 | human α1,4-galactosyltransferase (A4galt), high-frequency enzyme (p.Q211) (enzyme, UniProt Q9NPC4 1-353, looked up, human α1,4-galactosyltransferase, high-frequency variant with Q at position 211; full-length A4GALT gene from pCAG-A4GALT, GenBank NM_001318038.3 nucleotides 325-1386 (353 codons and stop); Four fusions were made (LgBiT or SmBiT at the N- or C-terminus, vectors pBiT1.1-N/C and pBiT2.1-N/C); every protein stood as LgBiT and as SmBiT fusion; also called Gb3/CD77 synthase; P1/Pk synthase; source: …) MSKPPDLLLRLLRGAPRQRVCTLFIIGFKFTFFVSIMIYWHVVGEPKEKGQLYNLPAEIPCPTLTPPTPPSHGPTPGNIFFLETSDRTNPNFLFMCSVESAARTHPESHVLVLMKGLPGGNASLPRHLGISLLSCFPNVQMLPLDLRELFRDTPLADWYAAVQGRWEPYLLPVLSDASRIALMWKFGGIYLDTDFIVLKNLRNLTNVLGTQSRYVLNGAFLAFERRHEFMALCMRDFVDHYNGWIWGHQGPQLLTRVFKKWCSIRSLAESRACRGVTTLPPEAFYPIPWQDWKKYFEDINPEELPRLLSATYAVHVWNKKSQGTRFEATSRALLAQLHARYCPTTHEAMKMYL
~30 | 360 | ~1000 | human α1,4-galactosyltransferase (A4galt), mutein with p.Q211E substitution (enzyme, UniProt Q9NPC4 1-353, looked up, human α1,4-galactosyltransferase, rare natural variant p.Q211E (c.631C>G, rs397514502); full-length A4GALT gene from pCAG-A4GALT, GenBank NM_001318038.3 nucleotides 325-1386; Four fusions were made (LgBiT or SmBiT at the N- or C-terminus); also called mutein human A4galt; rare enzyme variant; source: HEK293T or CHO-Lec2 cells, transfected (PEI), in live cells; not shown: LgBiT or SmBiT (NanoLuc …)) MSKPPDLLLRLLRGAPRQRVCTLFIIGFKFTFFVSIMIYWHVVGEPKEKGQLYNLPAEIPCPTLTPPTPPSHGPTPGNIFFLETSDRTNPNFLFMCSVESAARTHPESHVLVLMKGLPGGNASLPRHLGISLLSCFPNVQMLPLDLRELFRDTPLADWYAAVQGRWEPYLLPVLSDASRIALMWKFGGIYLDTDFIVLKNLRNLTNVLGTESRYVLNGAFLAFERRHEFMALCMRDFVDHYNGWIWGHQGPQLLTRVFKKWCSIRSLAESRACRGVTTLPPEAFYPIPWQDWKKYFEDINPEELPRLLSATYAVHVWNKKSQGTRFEATSRALLAQLHARYCPTTHEAMKMYL
